The target in test [1] is Impβ labeled with fluorescent Alexa 488 dye (human) (UniProt Q14974). As to the kind of experiment: native gel or EMSA. A general note: In EMSA bound probe runs differently from free probe, usually more slowly.
The target in test [2] is Impβ6M labeled with fluorescent Alexa 488 dye (human) (UniProt Q14974). As to the kind of experiment: native gel or EMSA.

What is called Kd is the concentration at which binding is half-saturated. A higher Kd goes with lower affinity.

Impβ labeled with fluorescent Alexa 488 dye (human), sequence (Q14974 whole entry): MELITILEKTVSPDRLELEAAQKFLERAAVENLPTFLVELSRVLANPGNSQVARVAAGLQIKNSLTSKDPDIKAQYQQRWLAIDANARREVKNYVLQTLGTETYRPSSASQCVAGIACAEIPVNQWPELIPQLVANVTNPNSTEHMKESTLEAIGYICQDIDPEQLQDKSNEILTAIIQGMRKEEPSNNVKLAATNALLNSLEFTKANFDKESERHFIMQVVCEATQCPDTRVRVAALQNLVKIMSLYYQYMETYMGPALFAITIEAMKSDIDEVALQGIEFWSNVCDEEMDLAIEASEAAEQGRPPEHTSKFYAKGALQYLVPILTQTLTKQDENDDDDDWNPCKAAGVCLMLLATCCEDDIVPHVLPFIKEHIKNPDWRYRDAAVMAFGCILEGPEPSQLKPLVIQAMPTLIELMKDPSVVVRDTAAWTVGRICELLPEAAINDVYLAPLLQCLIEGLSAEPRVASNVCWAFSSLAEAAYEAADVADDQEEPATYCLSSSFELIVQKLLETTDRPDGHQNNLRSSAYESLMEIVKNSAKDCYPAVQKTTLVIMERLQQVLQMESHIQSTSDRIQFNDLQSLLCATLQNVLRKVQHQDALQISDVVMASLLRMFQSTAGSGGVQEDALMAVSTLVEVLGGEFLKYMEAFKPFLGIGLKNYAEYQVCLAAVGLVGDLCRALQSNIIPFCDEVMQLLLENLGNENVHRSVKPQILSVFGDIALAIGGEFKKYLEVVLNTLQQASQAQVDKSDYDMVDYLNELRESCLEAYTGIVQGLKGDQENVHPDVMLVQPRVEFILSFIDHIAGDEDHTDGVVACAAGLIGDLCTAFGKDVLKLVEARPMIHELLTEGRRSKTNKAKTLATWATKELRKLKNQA
Impβ6M labeled with fluorescent Alexa 488 dye (human), sequence (Q14974 whole entry L174S/T175A/I178D/E214A/F217A/I218D): as the sequence (Q14974 whole entry) above, with L174S, T175A, I178D, E214A, F217A, I218D counted along it

Substance Imp7 F1019S (natural protein) yielded a dissociation constant Kd in test [1] of 1220 nM.

For “Imp7 F1028S and F1030S (natural protein)”, the equilibrium dissociation constant (Kd) in test [1] turned out to be 2890 nM. Compared with the last substance, the Kd is about 2.4-fold higher.

In test [1], “Impα F527S/F529S (from UniProt P52292 1-529) (natural protein)” gave a Kd of 920 nM.

With “importin α (Impα, Kapα) (from UniProt P52292 1-529) (natural protein)”, the dissociation constant (Kd) in test [1] is 620 nM; in test [2], 3340 nM.

Values taken from publication PMC6436938.
